For the assay, the target named is duck STING-LgBiT-Myc (pBiT-STING-LgBiT-Myc). The experiment in a line: NanoBiT luciferase complementation in DEFs. To be noted: pBiT-STING-LgBiT-Myc 400 ng/well, pBiT-2KNS4B-SmBiT-Flag or mutant 400 ng/well, 20 h posttransfection, read off a plot.

For the substance “duck TMUV 2KNS4B-SmBiT-Flag (pBiT-2KNS4B-SmBiT-Flag) D12A”, for the setting “parent: est. 3.3e7”, the response stood at 2.4e+07 RLU. Regarding “duck TMUV 2KNS4B-SmBiT-Flag (pBiT-2KNS4B-SmBiT-Flag) D34A”, the response (parent: est. 3.3e7) was 1.7e+07 RLU.

For the substance “duck TMUV 2KNS4B-SmBiT-Flag (pBiT-2KNS4B-SmBiT-Flag) D34A; L35A; R36A”, the response (parent: est. 1.7e6) worked out at 830000 RLU. As for “duck TMUV 2KNS4B-SmBiT-Flag (pBiT-2KNS4B-SmBiT-Flag) E2A”, under “parent: est. 3.3e7”, the response is 2.4e+07 RLU. The same measure, in the same setting: next, “duck TMUV 2KNS4B-SmBiT-Flag (pBiT-2KNS4B-SmBiT-Flag) E7A”: 2.5e+07 RLU.

For “duck TMUV 2KNS4B-SmBiT-Flag (pBiT-2KNS4B-SmBiT-Flag) E7A; Q8A; T9A”, the response (parent: est. 1.7e6) amounted to 830000 RLU. With “duck TMUV 2KNS4B-SmBiT-Flag (pBiT-2KNS4B-SmBiT-Flag) G4A”, for the setting “parent: est. 3.3e7”, the response is 2.3e+07 RLU. For the substance “duck TMUV 2KNS4B-SmBiT-Flag (pBiT-2KNS4B-SmBiT-Flag) G4A; W5A; L6A”, the response (parent: est. 1.7e6) amounted to 1.3e+06 RLU. Take “duck TMUV 2KNS4B-SmBiT-Flag (pBiT-2KNS4B-SmBiT-Flag) K10A”: the response (parent: est. 3.3e7) turned out to be 2e+07 RLU.

For “duck TMUV 2KNS4B-SmBiT-Flag (pBiT-2KNS4B-SmBiT-Flag) K10A; K11A; D12A”, the response (parent: est. 1.7e6) worked out at 1.4e+06 RLU. Turning to “duck TMUV 2KNS4B-SmBiT-Flag (pBiT-2KNS4B-SmBiT-Flag) K11A”, for the setting “parent: est. 3.3e7”, the response was 2.6e+07 RLU. “duck TMUV 2KNS4B-SmBiT-Flag (pBiT-2KNS4B-SmBiT-Flag) L6A”: the response (parent: est. 3.3e7) was found to be 2.7e+07 RLU. The same measure, in the same setting: for “duck TMUV 2KNS4B-SmBiT-Flag (pBiT-2KNS4B-SmBiT-Flag) L35A” the value was 2.6e+07 RLU; for “duck TMUV 2KNS4B-SmBiT-Flag (pBiT-2KNS4B-SmBiT-Flag) M3A”, 2.2e+07 RLU; for “duck TMUV 2KNS4B-SmBiT-Flag (pBiT-2KNS4B-SmBiT-Flag) N1A”, 3.6e+07 RLU.

As for “duck TMUV 2KNS4B-SmBiT-Flag (pBiT-2KNS4B-SmBiT-Flag) N1A; E2A; M3A”, the response (parent: est. 1.7e6) worked out at 930000 RLU.

In the case of “duck TMUV 2KNS4B-SmBiT-Flag (pBiT-2KNS4B-SmBiT-Flag) Q8A”, the response (parent: est. 3.3e7) was determined as 2.7e+07 RLU. Still for that read-out and setting: for “duck TMUV 2KNS4B-SmBiT-Flag (pBiT-2KNS4B-SmBiT-Flag) R36A” the value was 1.9e+07 RLU; for “duck TMUV 2KNS4B-SmBiT-Flag (pBiT-2KNS4B-SmBiT-Flag) T9A”, 2.9e+07 RLU; for “duck TMUV 2KNS4B-SmBiT-Flag (pBiT-2KNS4B-SmBiT-Flag) W5A”, 1.5e+07 RLU.
